# Test results: IntAct's records for PubMed 22314232
# B1: Calnexin (Homo sapiens), P27824 (parent)
# chain: MEGKWLLCMLLVLGTAIVEAHDGHDDDVIDIEDDLDDVIEEVEDSKPDTTAPPSSPKVTYKAPVPTGEVYFADSFDRGTLSGWILSKAKKDDTDDEIAKYDGKWEVEEMKESKLPGDKGLVLMSRAKHHAISAKLNKPFLFDTKPLIVQYEVNFQNGIECGGAYVKLLSKTPELNLDQFHDKTPYTIMFGPDKCGEDYKLHFIFRHKNPKTGIYEEKHAKRPDADLKTYFTDKKTHLYTLILNPDNSFEILVDQSVVNSGNLLNDMTPPVNPSREIEDPEDRKPEDWDERPKIPDPEAVKPDDWDEDAPAKIPDEEATKPEGWLDDEPEYVPDPDAEKPEDWDEDMDGEWEAPQIANPRCESAPGCGVWQRPVIDNPNYKGKWKPPMIDNPSYQGIWKPRKIPNPDFFEDLEPFRMTPFSAIGLELWSMTSDIFFDNFIICADRRIVDDWANDGWGLKKAADGAAEPGVVGQMIEAAEERPWLWVVYILTVALPVFLVILFCCSGKKQTSGMEYKKTDAPQPDVKEEEEEKEEEKDKGDEEEEGEEKLEEKQKSDAEEDGGTVSQEEEDRKPKAEEDEILNRSPRNRKPRRE
# Variants of: B1
# Settings: with SEC61A1, P61619
# Sequence of SEC61A1, P61619 (P61619 whole entry): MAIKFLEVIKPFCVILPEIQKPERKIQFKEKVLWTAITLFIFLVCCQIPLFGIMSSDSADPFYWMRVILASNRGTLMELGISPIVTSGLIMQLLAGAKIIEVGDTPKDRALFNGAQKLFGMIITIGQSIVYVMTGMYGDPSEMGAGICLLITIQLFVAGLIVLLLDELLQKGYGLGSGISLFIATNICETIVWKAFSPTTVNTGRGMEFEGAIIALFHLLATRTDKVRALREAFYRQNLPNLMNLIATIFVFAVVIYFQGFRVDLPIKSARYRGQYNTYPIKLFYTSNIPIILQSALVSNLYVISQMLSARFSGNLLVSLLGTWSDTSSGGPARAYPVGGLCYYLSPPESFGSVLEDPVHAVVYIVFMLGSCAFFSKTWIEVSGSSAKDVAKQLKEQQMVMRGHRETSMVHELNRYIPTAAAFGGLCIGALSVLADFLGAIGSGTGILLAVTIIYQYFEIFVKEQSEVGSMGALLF
row,Variant,effect of a mutation on the interaction
1,P494L,disrupting interaction

# Variants of: B1
# Settings: with rl12_human RPL12, P30050
row,Variant,effect of a mutation on the interaction
1,P494L,disrupting interaction
